From paper PMC8994517

Biological target: Human Hsp90α (human) (UniProt P07900)
Test: cryo-EM structure

Substance: MBP (maltose-binding protein)-GR ligand-binding domain (LBD) (F602S) (520-777) (from UniProt P04150 520-777) (domain or fragment)
- stoichiometry N (GR per Hsp90 dimer): 1
